Laboratory results: PMC4303685

How the values were obtained:
complement C3c (human) [1] = target: complement C3c (human) (UniProt P01024); experiment: AUC; sedimentation velocity, c(s) analysis; PBS in 2H2O (137 mM NaCl, pH 7.4); monomer to dimer, proportions by peak integration
complement C3c (human) [2] = target: complement C3c (human) (UniProt P01024); experiment: AUC; sedimentation velocity, c(s) analysis (SEDFIT), 50,000 rpm, 20 °C; 10 mM Hepes, 50 mM NaCl, pH 7.4; monomer to dimer, KD estimated
complement C3c (human) [3] = target: complement C3c (human) (UniProt P01024); experiment: AUC; sedimentation velocity, c(s) analysis (SEDFIT), 50,000 rpm, 20 °C; 10 mM Hepes, 137 mM NaCl, pH 7.4; monomer to dimer, KD estimated from peak integration
complement C3c (human) [4] = target: complement C3c (human) (UniProt P01024); experiment: SPR; Biacore X100, C3c amine-coupled to CM5 chip, C3d as analyte, 25 °C, 30 μl/min, steady state analysis; 10 mM Hepes, 50 mM NaCl, pH 7.4
[5] = target: recombinant wild-type C3d (E1032) (human) (UniProt P01024); experiment: AUC; sedimentation velocity, c(s) analysis; PBS in 2H2O (137 mM NaCl, pH 7.4); monomer to dimer, proportions by peak integration
[6] = target: recombinant wild-type C3d (E1032) (human) (UniProt P01024); experiment: AUC; sedimentation velocity, c(s) analysis (SEDFIT), 50,000 rpm, 20 °C; 10 mM Hepes, 50 mM NaCl, pH 7.4; monomer to dimer, KD estimated
[7] = target: recombinant wild-type C3d (E1032) (human) (UniProt P01024); experiment: AUC; sedimentation velocity, c(s) analysis (SEDFIT), 50,000 rpm, 20 °C; 10 mM Hepes, 137 mM NaCl, pH 7.4; monomer to dimer, KD estimated from peak integration

Substance: complement C3c (from UniProt P01024 23-667; P01024 749-954; P01024 1321-1663) (domain or fragment)
- dimer proportion (complement C3c (human) [1]): 7%
- stoichiometry N (complement C3c (human) [1]): 2
- Kd (complement C3c (human) [2]): 50 µM
- stoichiometry N (complement C3c (human) [2]): 2
- Kd (complement C3c (human) [3]): 60 µM
- dimer, percent of the total (complement C3c (human) [3]): 6%
- stoichiometry N (complement C3c (human) [3]): 2

Substance: mutant C3d (A1032), C3d E1032A (from UniProt P01024 996-1287) (domain or fragment)
- fold less binding than wild-type C3d (complement C3c (human) [4]): 10 fold

Substance: recombinant wild-type C3d (E1032) (from UniProt P01024 996-1287) (domain or fragment)
- dimer proportion [5]: 12%
- stoichiometry N [5]: 2
- Kd [6]: 25 µM
- stoichiometry N [6]: 2
- Kd (complement C3c (human) [4]): 51 µM
- dimer, percent of the total [7]: 10%
- stoichiometry N [7]: 2
